Measurements from patent US20140223597A1, “Mutated Hydroxyphenylpyruvate Dioxygenase, DNA Sequence and Isolation of Plants Which Are Tolerant To HPPD Inhibitor Herbicides” (Bayer CropScience AG, priority 2008, published 2014).

Tested on: Arabidopsis thaliana HPPD
Test: Assay for HPPD activity (4-HPP consumption, DNP photometric readout at 405 nm) in presence and absence of Tembotrione
Format: biochemical
Details: uninhibited enzyme activity set to 100%, 444 nM HPPD, 500 μM 4-HPP, 1 h room temperature
Description: HPPD produces homogentisate and CO2 from 4-HPP and O2. The enzyme is incubated with its substrate 4-HPP in the presence or absence of an inhibitor. L-ascorbic acid is present as a reductant to retain the active site iron in the ferrous form and Catalase is present to degrade toxic H2O2. After an incubation time of one hour, the reaction is stopped by addition of 2,4-Dinitrophenylhydrazine (DNP). DNP forms a hydrazone derivative with the remaining 4-HPP molecules in the assay mixture which appears in an amber-brown colour at an alkaline pH. The amount of unconsumed 4-HPP is measured photometrically at 405 nm.
For preparation of inhibitor stock solutions, Tembotrione (MW=440.82) and DKN (Mw=359.3) are dissolved in DMSO to a concentration of 10 mM. […] Further dilutions are made with ddH2O to obtain the inhibitor solutions used in the assay (5 μM, 10 μM and 20 μM). […] A 2% DMSO solution provides for half of the assay mixture in uninhibited reactions to normalize a possible inhibiting effect of DMSO.
The assay is designed for a HPPD concentration of 444 nM on a monomeric basis and a 4-HPP concentration of 500 μM. This corresponds to 44.4 pmol HPPD and 50 nmol 4-HPP in a 100 μL-assay mixture, resulting in an approximate 1000-fold excess of substrate in relation to the enzyme. The calculated theoretical molecular weight of an AtHPPD subunit is 49.515 kD which results in 2.2 μg HPPD per assay mixture. The calculated theoretical molecular weight of a PfHPPD subunit is 41.205 kD, resulting in 1.8 μg HPPD per assay mixture. The enzyme solution provides for one quarter of the assay mixture volume, so enzyme stock solutions are produced by diluting AtHPPD solutions to 88 μg*mL^−1 with 50 mM TRIS buffer; PfHPPD solutions are diluted to 72 μg*mL^−1.
The inhibitor concentrations (2.5 μM, 5 μM and 10 μM) provide for 5-fold, 10-fold and 20-fold excess of inhibitor compared to the amount of enzyme. A buffer/substrate solution is prepared which provides for one quarter of the assay mixture. 2.5 mL of buffer/substrate solution contain 1 mL 1 M TRIS buffer, 500 μL 10 mM 4-HPP solution, 500 μL 200 mM L-ascorbic acid solution, 13 μL Catalase solution and 487 μL ddH2O. The assay is carried out in Greiner F-bottom 96 well microplates and all reactions are carried out as triplicates. The controls are carried out sixfold per plate and contain either 25 μL 50 mM TRIS instead of HPPD solution (corresponding to 0% consumption of 4-HPP) or a buffer/substrate solution that contains 500 μL 1 M TRIS instead of 500 μL 10 mM 4-HPP (corresponding to 100% consumption of HPP). The reaction is started by addition of 25 μL HPPD solution to a mixture of 50 μL of the respective inhibitor solution or 50 μL 2% DMSO and 25 μL buffer/substrate solution. The reaction is allowed to proceed for 1 h at room temperature. The reaction is stopped and coloration of 4-HPP is induced by addition of 50 μL 0.04% DNP/3.8 N HCl solution. After 15 min, addition of 100 μL 5 N KOH leads to the colour shift of the hydrazone derivative. Photometric measurement with a BMG FLUOstar Galaxy microplate reader is carried out immediately at 405 nm and data obtained is used for analysis of HPPD activities in presence and absence of an inhibitor.

Molecule | Relative activity (in percentage) of At HPPD mutants in presence of Tembotrione ([…] Tembotrione) [%] | Relative activity (in percentage) of At HPPD mutants in presence of Tembotrione (5 μM Tembotrione) | Relative activity (in percentage) of At HPPD mutants in presence of Tembotrione (10 μM Tembotrione)
Gly422 mutant Asn: Arabidopsis thaliana HPPD (SEQ ID NO 4) with Gly422 replaced by Asn, N-terminal His6-tag (protein, UniProt P93836 1-445, looked up, variant G422N, N-terminal His6-tag) 4-hydroxyphenylpyruvate …: MGHQNAAVSENQNHDDGAASSPGFKLVGFSKFVRKNPKSDKFKVKRFHHIEFWCGDATNVARRFSWGLGMRFSAKSDLSTGNMVHASYLLTSGDLRFLFTAPYSPSLSAGEIKPTTTASIPSFDHGSCRSFFSSHGLGVRAVAIEVEDAESAFSISVANGAIPSSPPIVLNEAVTIAEVKLYGDVVLRYVSYKAEDTEKSEFLPGFERVEDASSFPLDYGIRRLDHAVGNVPELGPALTYVAGFTGFHQFAEFTADDVGTAESGLNSAVLASNDEMVLLPINEPVHGTKRKSQIQTYLEHNEGAGLQHLALMSEDIFRTLREMRKRSSIGGFDFMPSPPPTYYQNLKKRVGDVLSDDQIKECEELGILVDRDDQGTLLQIFTKPLGDRPTIFIEIIQRVGCMMKDEEGKAYQSGGCGGFGKNNFSELFKSIEEYEKTLEAKQLVG | 39 | – | –
Gly422 mutant His: Arabidopsis thaliana HPPD (SEQ ID NO 4) with Gly422 replaced by His, N-terminal His6-tag (protein, UniProt P93836 1-445, looked up, variant G422H, N-terminal His6-tag) 4-hydroxyphenylpyruvate …: MGHQNAAVSENQNHDDGAASSPGFKLVGFSKFVRKNPKSDKFKVKRFHHIEFWCGDATNVARRFSWGLGMRFSAKSDLSTGNMVHASYLLTSGDLRFLFTAPYSPSLSAGEIKPTTTASIPSFDHGSCRSFFSSHGLGVRAVAIEVEDAESAFSISVANGAIPSSPPIVLNEAVTIAEVKLYGDVVLRYVSYKAEDTEKSEFLPGFERVEDASSFPLDYGIRRLDHAVGNVPELGPALTYVAGFTGFHQFAEFTADDVGTAESGLNSAVLASNDEMVLLPINEPVHGTKRKSQIQTYLEHNEGAGLQHLALMSEDIFRTLREMRKRSSIGGFDFMPSPPPTYYQNLKKRVGDVLSDDQIKECEELGILVDRDDQGTLLQIFTKPLGDRPTIFIEIIQRVGCMMKDEEGKAYQSGGCGGFGKHNFSELFKSIEEYEKTLEAKQLVG | 51 | about 40% | about 40%
Cys (protein, UniProt P93836 1-445, looked up, variant G422C) 4-hydroxyphenylpyruvate …: MGHQNAAVSENQNHDDGAASSPGFKLVGFSKFVRKNPKSDKFKVKRFHHIEFWCGDATNVARRFSWGLGMRFSAKSDLSTGNMVHASYLLTSGDLRFLFTAPYSPSLSAGEIKPTTTASIPSFDHGSCRSFFSSHGLGVRAVAIEVEDAESAFSISVANGAIPSSPPIVLNEAVTIAEVKLYGDVVLRYVSYKAEDTEKSEFLPGFERVEDASSFPLDYGIRRLDHAVGNVPELGPALTYVAGFTGFHQFAEFTADDVGTAESGLNSAVLASNDEMVLLPINEPVHGTKRKSQIQTYLEHNEGAGLQHLALMSEDIFRTLREMRKRSSIGGFDFMPSPPPTYYQNLKKRVGDVLSDDQIKECEELGILVDRDDQGTLLQIFTKPLGDRPTIFIEIIQRVGCMMKDEEGKAYQSGGCGGFGKCNFSELFKSIEEYEKTLEAKQLVG | 44 | 27% | 19%
Gly422 mutant Cys: Arabidopsis thaliana HPPD (SEQ ID NO 4) with Gly422 replaced by Cys, N-terminal His6-tag (protein, UniProt P93836 1-445, looked up, variant G422C, N-terminal His6-tag) 4-hydroxyphenylpyruvate …: MGHQNAAVSENQNHDDGAASSPGFKLVGFSKFVRKNPKSDKFKVKRFHHIEFWCGDATNVARRFSWGLGMRFSAKSDLSTGNMVHASYLLTSGDLRFLFTAPYSPSLSAGEIKPTTTASIPSFDHGSCRSFFSSHGLGVRAVAIEVEDAESAFSISVANGAIPSSPPIVLNEAVTIAEVKLYGDVVLRYVSYKAEDTEKSEFLPGFERVEDASSFPLDYGIRRLDHAVGNVPELGPALTYVAGFTGFHQFAEFTADDVGTAESGLNSAVLASNDEMVLLPINEPVHGTKRKSQIQTYLEHNEGAGLQHLALMSEDIFRTLREMRKRSSIGGFDFMPSPPPTYYQNLKKRVGDVLSDDQIKECEELGILVDRDDQGTLLQIFTKPLGDRPTIFIEIIQRVGCMMKDEEGKAYQSGGCGGFGKCNFSELFKSIEEYEKTLEAKQLVG | 44 | – | –
Asn (protein, UniProt P93836 1-445, looked up, variant G422N) 4-hydroxyphenylpyruvate …: MGHQNAAVSENQNHDDGAASSPGFKLVGFSKFVRKNPKSDKFKVKRFHHIEFWCGDATNVARRFSWGLGMRFSAKSDLSTGNMVHASYLLTSGDLRFLFTAPYSPSLSAGEIKPTTTASIPSFDHGSCRSFFSSHGLGVRAVAIEVEDAESAFSISVANGAIPSSPPIVLNEAVTIAEVKLYGDVVLRYVSYKAEDTEKSEFLPGFERVEDASSFPLDYGIRRLDHAVGNVPELGPALTYVAGFTGFHQFAEFTADDVGTAESGLNSAVLASNDEMVLLPINEPVHGTKRKSQIQTYLEHNEGAGLQHLALMSEDIFRTLREMRKRSSIGGFDFMPSPPPTYYQNLKKRVGDVLSDDQIKECEELGILVDRDDQGTLLQIFTKPLGDRPTIFIEIIQRVGCMMKDEEGKAYQSGGCGGFGKNNFSELFKSIEEYEKTLEAKQLVG | 39 | 26% | 15%
Ser (protein, UniProt P93836 1-445, looked up, variant G422S) 4-hydroxyphenylpyruvate …: MGHQNAAVSENQNHDDGAASSPGFKLVGFSKFVRKNPKSDKFKVKRFHHIEFWCGDATNVARRFSWGLGMRFSAKSDLSTGNMVHASYLLTSGDLRFLFTAPYSPSLSAGEIKPTTTASIPSFDHGSCRSFFSSHGLGVRAVAIEVEDAESAFSISVANGAIPSSPPIVLNEAVTIAEVKLYGDVVLRYVSYKAEDTEKSEFLPGFERVEDASSFPLDYGIRRLDHAVGNVPELGPALTYVAGFTGFHQFAEFTADDVGTAESGLNSAVLASNDEMVLLPINEPVHGTKRKSQIQTYLEHNEGAGLQHLALMSEDIFRTLREMRKRSSIGGFDFMPSPPPTYYQNLKKRVGDVLSDDQIKECEELGILVDRDDQGTLLQIFTKPLGDRPTIFIEIIQRVGCMMKDEEGKAYQSGGCGGFGKSNFSELFKSIEEYEKTLEAKQLVG | 18 | 4% | 0%
Gly422 mutant Val: Arabidopsis thaliana HPPD (SEQ ID NO 4) with Gly422 replaced by Val, N-terminal His6-tag (protein, UniProt P93836 1-445, looked up, variant G422V, N-terminal His6-tag) 4-hydroxyphenylpyruvate …: MGHQNAAVSENQNHDDGAASSPGFKLVGFSKFVRKNPKSDKFKVKRFHHIEFWCGDATNVARRFSWGLGMRFSAKSDLSTGNMVHASYLLTSGDLRFLFTAPYSPSLSAGEIKPTTTASIPSFDHGSCRSFFSSHGLGVRAVAIEVEDAESAFSISVANGAIPSSPPIVLNEAVTIAEVKLYGDVVLRYVSYKAEDTEKSEFLPGFERVEDASSFPLDYGIRRLDHAVGNVPELGPALTYVAGFTGFHQFAEFTADDVGTAESGLNSAVLASNDEMVLLPINEPVHGTKRKSQIQTYLEHNEGAGLQHLALMSEDIFRTLREMRKRSSIGGFDFMPSPPPTYYQNLKKRVGDVLSDDQIKECEELGILVDRDDQGTLLQIFTKPLGDRPTIFIEIIQRVGCMMKDEEGKAYQSGGCGGFGKVNFSELFKSIEEYEKTLEAKQLVG | 43 | – | –
